The test deals with T1, cynomolgus monkey CD19 (cCD19) (cynomolgus monkey).
T1 construct: Expressed on transiently transfected 293 cells
T1 chain: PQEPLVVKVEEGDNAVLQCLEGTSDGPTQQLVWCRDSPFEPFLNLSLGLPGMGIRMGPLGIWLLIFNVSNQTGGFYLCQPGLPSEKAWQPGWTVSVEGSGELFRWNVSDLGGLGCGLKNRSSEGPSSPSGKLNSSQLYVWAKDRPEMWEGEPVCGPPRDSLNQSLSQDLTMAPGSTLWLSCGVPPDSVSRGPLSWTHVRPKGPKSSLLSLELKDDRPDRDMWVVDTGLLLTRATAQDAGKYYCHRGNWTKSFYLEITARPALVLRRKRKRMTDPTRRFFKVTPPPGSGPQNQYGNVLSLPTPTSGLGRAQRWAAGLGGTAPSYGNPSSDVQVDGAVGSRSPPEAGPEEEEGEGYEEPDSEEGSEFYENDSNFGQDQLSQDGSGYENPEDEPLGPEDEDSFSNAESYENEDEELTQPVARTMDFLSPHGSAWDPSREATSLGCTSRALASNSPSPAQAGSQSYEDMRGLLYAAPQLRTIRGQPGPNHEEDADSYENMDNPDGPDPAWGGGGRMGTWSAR
As to the kind of experiment: flow cytometry on transfected 293 cells. On the technique in general: Flow cytometry measures light scatter and fluorescence of single cells or particles in a stream.

Description: In brief, first, the expression of CD19 protein was identified.
Binding to GFP-positive cells was analyzed on the basis of mean fluorescence intensity (MFI).

B1: CD19_12.18 antibody (scFv, V domains shown)
VH: AVTLDESGGGLQTPGGALSLVCKASGFTFSSYDMGWVRQAPGKGLEFVAGIDDDGRYTSYGSAVDGRATISRDNGQSTVRLQLNNLRAEDTATYYCTRGNAGWIDAWGHGTEVIVSS
VL: LTQPSSVSANPGETVKITCSGGYSSYYGWYQQKSPGSAPVTLIYESNKRPSDIPSRFSGSASGSTATLTITGVQVEDEAVYYCGGWDSTHAGIFGAGTTLTVLG
notes: Chicken-derived antibody, tested as an Fc fusion (Anti-CD19 scFv-Fc) made in FreeStyle 293F cells; also called CD19_1218-Fc; Anti-CD19 scFv-Fc
With B1, the binding result was “no binding”.

These data come from patent US20230099646A1 (published 2023).
